First the molecules themselves.
T1: purified human glycophorin A protein (Sigma, cat # G5017) (human, UniProt P02724 20-150)
T1 construct: mature; also called Sigma hGPA; Sigma GPA
T1 sequence (looked up): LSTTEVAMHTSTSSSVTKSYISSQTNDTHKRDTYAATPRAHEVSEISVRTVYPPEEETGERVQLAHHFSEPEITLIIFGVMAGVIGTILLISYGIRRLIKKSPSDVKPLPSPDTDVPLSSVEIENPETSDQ

T2: human glycophorin A in the red blood cell membrane (human, UniProt P02724 20-150)
T2 construct: whole, on cells; used for intact RBC, isolated RBC membranes and transfected cells; the assay field tells which; also called GPA; hGPA
T2 sequence (looked up): T1 sequence (looked up)

T3: Rhesus monkey glycophorin A on Rhesus monkey red blood cells (Rhesus monkey, UniProt A0A1D5Q349 20-150)
T3 construct: whole, on cells; also called Rhesus RBC; monkey GPA
T3 sequence: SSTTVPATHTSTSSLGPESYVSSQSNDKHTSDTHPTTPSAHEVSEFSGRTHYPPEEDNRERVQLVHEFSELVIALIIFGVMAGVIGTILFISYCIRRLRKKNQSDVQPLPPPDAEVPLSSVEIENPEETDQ

T4: glycophorin A peptide GP5 (human, biotin at the N-terminus)
T4 construct: Residues 42 to 61 of the human glycophorin A extracellular domain
T4 peptide: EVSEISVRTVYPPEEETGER

B1: Hu6C12-12 (antibody, V domains shown)
VH: EVQLVQSGAEVKKPGASVKVSCKASGYTFTTYTIHWVRQAPGQGLEWMGYINPSSDYTRYNPKFKDRVTMTTDTSTSTAYMELRSLRSDDTAVYYCQTGTRDYWGQGTTVTVSS
VL: DIQLTQSPSFLSASVGDRVTITCSAASSVSYIYWYQQKPGKAPKLLIYSTSTLPSGVPSRFSGSGSGTEYTLTISSLQPEDFATYYCHQRNSFPFTFGQGTKLEIK
notes: IgG format; VH.1c + Vk.1a
B2: Hu6C12-15 (antibody, V domains shown)
VH: B1 VH with M70L
VL: B1 VL
notes: IgG format; VH.1f + Vk.1a
B3: Hu6C12-19 (antibody, V domains shown)
VH: B1 VH with Q97A
VL: B1 VL with Y35F
notes: IgG format; VH.1b + Vk.1b
B4: Hu6C12-2 (antibody, V domains shown)
VH: B1 VH with Q97A
VL: B1 VL with Y70F
notes: IgG format; VH.1b + Vk.1
B5: Hu6C12-3 (antibody, V domains shown)
VH: B1 VH
VL: B1 VL with Y70F
notes: IgG format; VH.1c + Vk.1
B6: Hu6C12-7 (antibody, V domains shown)
VH: B1 VH with M48I, M70L, T74K
VL: B1 VL with Y70F
notes: IgG format; VH.1g + Vk.1
B7: Hu6C12-6 (antibody, V domains shown)
VH: B1 VH with M70L
VL: B1 VL with Y70F
notes: IgG format; VH.1f + Vk.1
B8: Hu6C12-5 (antibody, V domains shown)
VH: B1 VH with M70L, Q97A
VL: B1 VL with Y70F
notes: IgG format; VH.1e + Vk.1
B9: Hu6C12-16 (antibody, V domains shown)
VH: B1 VH with M48I, M70L, T74K
VL: B1 VL
notes: IgG format; VH.1g + Vk.1a
B10: TPP-8744 FVIII-scFv fusion protein (other)
chain: ATRRYYLGAVELSWDYMQSDLGELPVDARFPPRVPKSFPFNTSVVYKKTLFVEFTDHLFNIAKPRPPWMGLLGPTIQAEVYDTVVITLKNMASHPVSLHAVGVSYWKASEGAEYDDQTSQREKEDDKVFPGGSHTYVWQVLKENGPMASDPLCLTYSYLSHVDLVKDLNSGLIGALLVCREGSLAKEKTQTLHKFILLFAVFDEGKSWHSETKNSLMQDRDAASARAWPKMHTVNGYVNRSLPGLIGCHRKSVYWHVIGMGTTPEVHSIFLEGHTFLVRNHRQASLEISPITFLTAQTLLMDLGQFLLFCHISSHQHDGMEAYVKVDSCPEEPQLRMKNNEEAEDYDDDLTDSEMDVVRFDDDNSPSFIQIRSVAKKHPKTWVHYIAAEEEDWDYAPLVLAPDDRSYKSQYLNNGPQRIGRKYKKVRFMAYTDETFKTREAIQHESGILGPLLYGEVGDTLLIIFKNQASRPYNIYPHGITDVRPLYSRRLPKGVKHLKDFPILPGEIFKYKWTVTVEDGPTKSDPRCLTRYYSSFVNMERDLASGLIGPLLICYKESVDQRGNQIMSDKRNVILFSVFDENRSWYLTENIQRFLPNPAGVQLEDPEFQASNIMHSINGYVFDSLQLSVCLHEVAYWYILSIGAQTDFLSVFFSGYTFKHKMVYEDTLTLFPFSGETVFMSMENPGLWILGCHNSDFRNRGMTALLKVSSCDKNTGDYYEDSYEDISAYLLSKNNAIEPRSFSQNGGGGSTGGTGGSSGGGTGSGGGGTGGSGGTDIQLTQSPSFLSASVGDRVTITCRASSSVSYIYWFQQKPGKAPKLLIYATSTLQSGVPSRFSGSGSGTEYTLTISSLQPEDFATYYCHQRNSFPYTFGQGTKLEIKGGGGSGGGGSGGGGSGGGGSEVQLVQSGAEVKKPGASVKVSCKASGYTFTRYTIHWVRQAPGQGLEWMGYINPSSGYTRYNPKFKGRVTMTRDKSTSTAYMELRSLRSDDTAVYYCWTGTRDYWGQGTTVTVSSGGGGSQNPPVLKRHQREITDENQSPRSFQKKTRHYFIAAVERLWDYGMSSSPHVLRNRAQSGSVPQFKKVVFQEFTDGSFTQPLYRGELNEHLGLLGPYIRAEVEDNIMVTFRNQASRPYSFYSSLISYEEDQRQGAEPRKNFVKPNETKTYFWKVQHHMAPTKDEFDCKAWAYFSDVDLEKDVHSGLIGPLLVCHTNTLNPAHGRQVTVQEFALFFTIFDETKSWYFTENMERNCRAPCNIQMEDPTFKENYRFHAINGYIMDTLPGLVMAQDQRIRWYLLSMGSNENIHSIHFSGHVFTVRKKEEYKMALYNLYPGVFETVEMLPSKAGIWRVECLIGEHLHAGMSTLFLVYSNKCQTPLGMASGHIRDFQITASGQYGQWAPKLARLHYSGSINAWSTKEPFSWIKVDLLAPMIIHGIKTQGARQKFSSLYISQFIIMYSLDGKKWQTYRGNSTGTLMVFFGNVDSSGIKHNIFNPPIIARYIRLHPTHYSIRSTLRMELMGCDLNSCSMPLGMESKAISDAQITASSYFTNMFATWSPSKARLHLQGRSNAWRPQVNNPKEWLQVDFQKTMKVTGVTTQGVKSLLTSMYVKEFLISSSQDGHQWTLFFQNGKVKVFQGNQDSFTPVVNSLDPPLLTRYLRIHPQSWVHQIALRMEVLGCEAQDLY
notes: The entry is the mature protein; mostly a 2 chain molecule

Substitutions are numbered along the chain they refer to.

The first experiment addresses T1, purified human glycophorin A protein …. In words: ELISA, IgG. Background: ELISA stands for enzyme-linked immunosorbent assay.
In general, EC50 refers to the concentration that produces a half-maximal response. With B1, it took 10.4 nM to reach a half-maximal effect (EC50).

As to B2, the EC50 was 9.69 nM.

Molecule B3 showed an EC50 of 0.876 nM.

Consider B4, for which it took 8.65 nM to reach a half-maximal effect (EC50).

B5: the EC50 worked out at 2.17 nM.

On to B6, for which the EC50 is 1.78 nM.

B7 came in with an EC50 of 3.46 nM.

B8 returned an EC50 of 8.45 nM.

B9: a half-maximal response (EC50) required 4.8 nM.

A further experiment deals with T5, Cynomolgus monkey glycophorin A on Cynomolgus monkey red blood cells (Cynomolgus monkey).
T5 construct: whole, on cells; also called Cyno RBC; Cyno GPA
In words: FACS, RBC Cy01. In general terms: In flow cytometry, cells or beads pass a laser one at a time.
Protocol: (§1) The binding of the humanized variants to intact red blood cells (RBC) from humans (Hu01 to 03; 3 individuals), Rhesus monkey (Rh01 to 03; 3 individuals) and Cynomolgus monkey (Cy01 to 02; 2 individuals) was measured by fluorescence activated cell sorting (FACS).
Consider B1, for which the fluorescence intensity came out at 959.

B2 came in with a fluorescence intensity of 1010.

With B3, the fluorescence intensity amounted to 1040.

B4 yielded a fluorescence intensity of 962.

On to B5, for which the fluorescence intensity is 1120.

Regarding B6, the fluorescence intensity was found to be 1360.

For the molecule B7, the fluorescence intensity was determined as 1060.

B8 registered a fluorescence intensity of 1070.

Take B9: the fluorescence intensity was found to be 1270.

For the next experiment, the target named is T5, Cynomolgus monkey glycophorin A on …. In words: FACS, RBC Cy02.
Protocol: as §1
Take B1: the fluorescence intensity amounted to 1030.

Consider B2, for which the fluorescence intensity stood at 1070.

In the case of B3, the fluorescence intensity was 1240.

B4 yielded a fluorescence intensity of 1030.

For B5, the fluorescence intensity is 1200.

B6 showed a fluorescence intensity of 1430.

On to B7, for which the fluorescence intensity was 1100.

In turn, B8 showed a fluorescence intensity of 1140.

Molecule B9 displayed a fluorescence intensity of 1360.

The next experiment has as its target T2, human glycophorin A in the red blood …. In words: FACS, RBC Hu01.
Protocol: as §1
Regarding B1, the fluorescence intensity came out at 646.

The molecule B2 showed a fluorescence intensity of 590.

B3 displayed a fluorescence intensity of 1630.

As to B4, the fluorescence intensity amounted to 897.

In turn, B5 showed a fluorescence intensity of 1070.

For B6, the fluorescence intensity came to 1230.

As to B7, the fluorescence intensity was determined as 909.

B8 showed a fluorescence intensity of 921.

As for B9, the fluorescence intensity worked out at 895.

Another experiment has the same target. In words: FACS, RBC Hu02.
Protocol: as §1
Take B1: the fluorescence intensity was 393.

B2 had a fluorescence intensity of 375.

B3 gave a fluorescence intensity of 1270.

Consider B4, for which the fluorescence intensity amounted to 603.

As to B5, the fluorescence intensity amounted to 739.

With B6, the fluorescence intensity was determined as 945.

In turn, B7 returned a fluorescence intensity of 634.

On to B8, for which the fluorescence intensity was found to be 625.

In the case of B9, the fluorescence intensity is 637.

A further experiment shares this target. In words: FACS, RBC Hu03.
Protocol: as §1
Consider B1, for which the fluorescence intensity is 484.

B2: the fluorescence intensity was determined as 482.

The molecule B3 came in with a fluorescence intensity of 1440.

Molecule B4 displayed a fluorescence intensity of 716.

In turn, B5 displayed a fluorescence intensity of 862.

For B6, the fluorescence intensity was determined as 1100.

B7: the fluorescence intensity came out at 786.

Molecule B8 had a fluorescence intensity of 758.

For B9, the fluorescence intensity was 786.

For another experiment, the target named is T3, Rhesus monkey glycophorin A on Rhesus …. In words: FACS, RBC Rh01.
Protocol: as §1
As for B1, the fluorescence intensity was determined as 1480.

In turn, B2 came in with a fluorescence intensity of 1520.

The molecule B3 yielded a fluorescence intensity of 1620.

Turning to B4, the fluorescence intensity stood at 1530.

As to B5, the fluorescence intensity turned out to be 1730.

B6 registered a fluorescence intensity of 2060.

B7 came in with a fluorescence intensity of 1640.

As to B8, the fluorescence intensity was 1660.

On to B9, for which the fluorescence intensity came out at 2000.

For the next experiment the target is unchanged. In words: FACS, RBC Rh02.
As for B1, the fluorescence intensity was 1400.

For the molecule B2, the fluorescence intensity came to 1480.

For the molecule B3, the fluorescence intensity came to 1510.

B4 displayed a fluorescence intensity of 1400.

The molecule B5 yielded a fluorescence intensity of 1600.

Turning to B6, the fluorescence intensity was found to be 1940.

With B7, the fluorescence intensity came out at 1520.

For B8, the fluorescence intensity stood at 1550.

For B9, the fluorescence intensity was determined as 1860.

The target is the same in another experiment. In words: FACS, RBC Rh03.
Protocol: as §1
Consider B1, for which the fluorescence intensity is 1410.

In turn, B2 gave a fluorescence intensity of 1490.

In turn, B3 returned a fluorescence intensity of 1520.

B4 had a fluorescence intensity of 1380.

For the molecule B5, the fluorescence intensity came to 1600.

The molecule B6 showed a fluorescence intensity of 1920.

For the molecule B7, the fluorescence intensity worked out at 1540.

The molecule B8 came in with a fluorescence intensity of 1560.

Take B9: the fluorescence intensity came out at 1870.

The next experiment has as its target T4, glycophorin A peptide GP5. In words: Octet, GP5 peptide on the probe, fusion protein in solution, 1:1 fit. For orientation: BLI is a label-free optical method that tracks binding on a fibre tip over time.
What is called Kd is the concentration at which binding is half-saturated. The term koff denotes a measure of how fast the partners let go of each other. As a reminder, the kon is a measure of how fast the partners come together. B10 registered a Kd of 7.35 nM, a koff of 0.0048 s⁻¹ and a kon of 652000 M⁻¹ s⁻¹.
